Measured values taken from PMC5224880, “Discovery and Molecular Basis of a Diverse Set of Polycomb Repressive Complex 2 Inhibitors Recognition by EED” (PLoS ONE, 2017).

Biological target: T1, EED, comprising residues 76–441 (TEV-cleaved, used for crystallization) (human, UniProt O75530 76-441)
T1 construct: EED (embryonic ectoderm development), human, residues 76-441, cloned into pGEX-KG; The EED in PDB 5H13 (no EZH2 peptide) was cleaved with thrombin instead of TEV; also called embryonic ectoderm development; TEV-cleaved EED protein; source: E. coli BL21-CodonPlus(DE3)-RIL, purified (Glutathione Sepharose 4B, TEV cleavage, Ni2+-NTA flow-through, Superdex 75); not shown: GST, N-terminal, cleaved
Test: crystal structure; TEV-cleaved EED (76-441) mixed with EZH2 peptide at molar ratio 1:2.5; EED-EBD crystals soaked with EED709, EED666 or EED210 (0.1 M Tris pH 8.0, 16% PEG 8000, 20°C) or co-crystallised with EED162 (0.1 M Bis-Tris pH 6.0, 0.2 M MgCl2, 20% PEG 3350)
Settings: both partners purified

T1 sequence (O75530 76-441): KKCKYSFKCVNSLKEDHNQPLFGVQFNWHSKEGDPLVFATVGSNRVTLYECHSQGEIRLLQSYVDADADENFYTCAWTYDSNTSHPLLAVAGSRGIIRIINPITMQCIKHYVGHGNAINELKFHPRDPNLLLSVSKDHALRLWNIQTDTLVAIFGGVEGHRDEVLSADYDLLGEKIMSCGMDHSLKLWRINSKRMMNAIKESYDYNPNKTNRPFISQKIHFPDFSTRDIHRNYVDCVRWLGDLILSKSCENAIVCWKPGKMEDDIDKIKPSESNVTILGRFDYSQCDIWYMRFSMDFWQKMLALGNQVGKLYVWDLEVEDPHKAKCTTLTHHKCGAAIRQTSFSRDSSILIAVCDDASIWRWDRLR

binding result: binds
B1: EZH2 peptide (residues 40–68, EBD) (peptide)
peptide: KSMFSSNRQKILERTEILNQEWKQRRIQPV
notes: EZH2 (Enhancer of zeste homolog 2), human; Printed as NH2-...-CO2H (free ends); also called EBD peptide; EZH2 peptide (40–68); source: synthetic peptide (GL Biochem)
